# Measurements from patent US20130108641A1 (Sanofi, published 2013).
# T1: human GITR protein (form not stated) (human, UniProt Q9Y5U5 26-161, limits assumed)
# T1 construct: also called hGITR
# T1 sequence (looked up): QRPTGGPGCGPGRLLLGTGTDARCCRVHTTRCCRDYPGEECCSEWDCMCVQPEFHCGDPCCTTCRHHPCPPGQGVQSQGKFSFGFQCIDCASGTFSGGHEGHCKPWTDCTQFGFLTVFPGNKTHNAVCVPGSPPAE
# T2: human GITR expressed on cells (human, UniProt Q9Y5U5 26-241)
# T2 construct: whole, on cells; Used for HEK293 transfectants and for PHA-stimulated human PBMCs; also called hGITR; cell surface hGITR
# T2 sequence (looked up): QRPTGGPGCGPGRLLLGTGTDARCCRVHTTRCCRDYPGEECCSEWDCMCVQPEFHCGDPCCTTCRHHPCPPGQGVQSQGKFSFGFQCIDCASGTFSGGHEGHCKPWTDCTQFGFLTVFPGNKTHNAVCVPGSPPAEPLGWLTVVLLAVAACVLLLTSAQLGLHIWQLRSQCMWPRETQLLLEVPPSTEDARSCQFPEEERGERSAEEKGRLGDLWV
# T3: human GITR-Fc fusion protein (human, UniProt Q9Y5U5 26-162)
# T3 construct: extracellular domain; also called hGITR-Fc; recombinant human GITR-Fc; not shown: Fc part
# T3 sequence (looked up): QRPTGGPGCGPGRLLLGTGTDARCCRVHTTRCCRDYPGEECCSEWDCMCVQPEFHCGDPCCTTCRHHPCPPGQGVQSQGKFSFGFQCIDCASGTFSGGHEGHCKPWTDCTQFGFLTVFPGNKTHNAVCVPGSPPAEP
# B1: humanized anti-GITR antibody 2155 variant HC4-LC3 (antibody, V domains shown)
# VH: EVQLVESGGGLIQPGGSLKLSCAASGFTISSYAMSWVRQAPGKGLEWVAIISTGGSTYYADSVKGRFTISRDNSKNTLYLQMNSLRAEDTAVYYCARVGGYYDSMDHWGQGTSVT
# VL: DIVLTQSPASLAVSPGQRATITCRASETVDNYGISFMNWFQQKPGQPPKLLIYAASNQGSGVPARFSGSGSGTDFTLTINPVEADDTANYYCQQSKEVPWTFGQGTKVE
# notes: also called LC3 and HC4
# B2: chimeric 2155 antibody (antibody, V domains shown)
# VH: EVKLVESGGGLVKPGGSLKLSCGASGFTISSYAMSWVRQSPEKRLEWVAIISTGGSTYYPDSVRGRFTISRDNARNSLYLQMSSLRSEDTAMYYCARVGGYYDSMDHWGQGTSVTVSS
# VL: not shown
# B3: humanized anti-GITR antibody 2155 variant HC2-LC1 (antibody, V domains shown)
# VH: QVTLVESGGGLVKPGGSLTLSCGASGFTISSYAMSWVRQSPGKALEWVAIISTGGSTYYPDSVRGRFTISRDNAKNSLYLTMSSLDSVDTATYYCARVGGYYDSMDHWGQGTSVT
# VL: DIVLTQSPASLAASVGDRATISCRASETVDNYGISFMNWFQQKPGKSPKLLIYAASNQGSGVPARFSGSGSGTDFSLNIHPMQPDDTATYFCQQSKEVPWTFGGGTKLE
# notes: also called LC1 and HC2
# B4: humanized anti-GITR antibody 2155 variant HC3b-LC2a (antibody, V domains shown)
# VH: QVTLKESGGGLVKPGGSLTLSCGASGFTISSYAMSWVRQSPGKALEWVAIISTGGSTYYPDKFRGRFTISRDNAKNSLYLTMSSLRSEDTATYYCARVGGYYDSMDHWGQGTSVT
# VL: DIVLTQSPASLSASVGDRATISCRASETVDNYGISFMNWFQQKPGQSPKLLIYAASNQGSGVPARFSGSGSGTDFSLTISPMQPDDTATYYCQQSKEVPWTFGGGTKLE
# notes: also called LC2a and HC3b
# B5: humanized anti-GITR antibody 2155 variant HC3a-LC2a (antibody, V domains shown)
# VH: QVTLVESGGGLVKPGGSLTLSCGASGFTISSYAMSWVRQSPGKALEWVAIISTGGSTYYPDKFRGRFTISRDNAKNSLYLTMSSLRSEDTATYYCARVGGYYDSMDHWGQGTSVT
# VL: DIVLTQSPASLSASVGDRATISCRASETVDNYGISFMNWFQQKPGQSPKLLIYAASNQGSGVPARFSGSGSGTDFSLTISPMQPDDTATYYCQQSKEVPWTFGGGTKLE
# notes: also called LC2a and HC3a
# B6: humanized anti-GITR antibody 2155 variant HC1-LC1 (antibody, V domains shown)
# VH: QVTLVESGGGLVKPGGSLTLSCGASGFTISSYAMSWVRQSPGKALEWVAIISTGGSTYYPDSVRGRFTISRDNAKNSLYLTMSSLDSVDTAMYYCARVGGYYDSMDHWGQGTSVT
# VL: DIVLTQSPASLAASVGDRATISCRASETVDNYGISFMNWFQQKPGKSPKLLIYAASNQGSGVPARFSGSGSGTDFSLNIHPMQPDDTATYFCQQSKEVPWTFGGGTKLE
# notes: also called LC1 and HC1
# How the values were obtained:
# [1] = target: T1, human GITR protein (form not stated); test: ELISA, GITR protein coated
# Method: Ninety-six well plates were coated with GITR protein at 0.25 μg/well at 4° C., overnight. Wells were washed with washing buffer (PBS pH 7.4+0.05 Tween 20) and blocked with 200 μL of blocking buffer (PBS pH 7.4+0.05% Tween 20+1% BSA) for 1 hour at room temperature. […] The plate was incubated at room temperature for 1 h and washed five times with PBS-T. Then, 100 μL of a 1:50 000 dilution of peroxidase-conjugated goat anti-human IgG-Fc (Sigma)) was added to each well. Following incubation at room temperature for 1 h in the dark, the plate was washed with PBS-T, five times. Antibody binding was visualized by adding 100 μL/well of TMB-H₂O₂ substrate buffer (Interchim) The reaction proceeded at room temperature for 10 min and was read using an ELISA plate reader at a wavelength of 450 nm.
# [2] = target: T2, human GITR expressed on cells; test: FACS on HEK293-Trex-hGITR cells, Michaelis binding plot
# Method: (§1) Wells were washed 3 times with 200 μl/well of PBS+1% BSA by centrifugation at 350 g for 5 minutes. Then, 100 μL of a 1:400 dilution of Alexa 647-conjugated, anti-human IgG-Fc (Invitrogen) was added to each well. Following incubation at 4° C. for 45 minutes in the dark, the plate was washed with PBS-1% BSA three times. Cells were resuspended in 150 μL of PBS-1% BSA and analyzed using GUAVA instrument.
# [3] = target: T3, human GITR-Fc fusion protein; test: competition ELISA, GITRL coated, GITR 0.25 µg/mL pre-incubated with antibody
# Method: Ninety-six well plates were coated with GITR-Ligand proteins at 0.5 μg/well at 4° C. overnight. Wells were washed with washing buffer (PBS pH 7.4+0.05 Tween 20) and blocked with 200 μL of blocking buffer (PBS pH 7.4+0.05% Tween 20+1% BSA) for 1 hour at room temperature. […] Plates were washed four times with washing buffer and GITR-Ligand-bound recombinant human GITR-Fc was detected with the use of peroxidase-conjugated goat, anti-human IgG-Fc (Sigma), followed by incubation with the TMB substrate (Interchim ref UP664780).
# [4] = target: T2, human GITR expressed on cells; test: FACS (Guava) on HEK293-Trex-hGITR cells, Alexa 647 anti-human IgG-Fc detection; fitted half-maximal concentration in the legend box, unit from the x axis 'mAb concentrations (µg/mL)'
# Method: as §1
binder,measurement,setting,value
B1,EC50,[1],1.08 nM
same,Kd,[2],4.52 nM
same,IC50,[3],1.21 nM
same,EC50,[4],0.259 µg/mL
B2,EC50,[1],0.97 nM
same,Kd,[2],5.55 nM
same,IC50,[3],1.13 nM
same,EC50,[4],0.337 µg/mL
B3,EC50,[1],1.34 nM
same,Kd,[2],4.68 nM
same,IC50,[3],0.93 nM
same,EC50,[4],0.278 µg/mL
B4,EC50,[1],1.24 nM
same,Kd,[2],4.96 nM
same,IC50,[3],1.15 nM
same,EC50,[4],0.238 µg/mL
B5,EC50,[1],2.17 nM
same,Kd,[2],5.51 nM
same,IC50,[3],1.26 nM
same,EC50,[4],0.333 µg/mL
B6,EC50,[1],0.91 nM
same,Kd,[2],4.03 nM
same,IC50,[3],1.08 nM
same,EC50,[4],0.206 µg/mL
